From article PMC5515730 (Nature Structural & Molecular Biology, 2016)

Molecular target: the molecule itself
Test: cryo-EM structure

B1: HCoV-NL63 spike (S) glycoprotein ectodomain fused to a GCN4 trimerization motif (domain or fragment)
chain: FFTCNSNANLSMLQLGVPDNSSTIVTGLLPTHWFCANQSTSVYSANGFFYIDVGNHRSAFALHTGYYDANQYYIYVTNEIGLNASVTLKICKFSRNTTFDFLSNASSSFDCIVNLLFTEQLGAPLGITISGETVRLHLYNVTRTFYVPAAYKLTKLSVKCYFNYSCVFSVVNATVTVNVTTHNGRVVNYTVCDDCNGYTDNIFSVQQDGRIPNGFPFNNWFLLTNGSTLVDGVSRLYQPLRLTCLWPVPGLKSSTGFVYFNATGSDVNCNGYQHNSVVDVMRYNLNFSANSLDNLKSGVIVFKTLQYDVLFYCSNSSSGVLDTTIPFGPSSQPYYCFINSTINTTHVSTFVGILPPTVREIVVARTGQFYINGFKYFDLGFIEAVNFNVTTASATDFWTVAFATFVDVLVNVSATNIQNLLYCDSPFEKLQCEHLQFGLQDGFYSANFLDDNVLPETYVALPIYYQHTDINFTATASFGGSCYVCKPHQVNISLNGNTSVCVRTSHFSIRYIYNRVKSGSPGDSSWHIYLKSGTCPFSFSKLNNFQKFKTICFSTVEVPGSCNFPLEATWHYTSYTIVGALYVTWSEGNSITGVPYPVSGIREFSNLVLNNCTKYNIYDYVGTGIIRSSNQSLAGGITYVSNSGNLLGFKNVSTGNIFIVTPCNQPDQVAVYQQSIIGAMTAVNESRYGLQNLLQLPNFYYVSNGGNNCTTAVMTYSNFGICADGSLIPVRPRNSSDNGISAIITANLSIPSNWTTSVQVEYLQITSTPIVVDCATYVCNGNPRCKNLLKQYTSACKTIEDALRLSAHLETNDVSSMLTFDSNAFSLANVTSFGDYNLSSVLPQRNIRSSRIAGRSALEDLLFSKVVTSGLGTVDVDYKSCTKGLSIADLACAQYYNGIMVLPGVADAERMAMYTGSLIGGMVLGGLTSAAAIPFSLALQARLNYVALQTDVLQENQKILAASFNKAINNIVASFSSVNDAITQTAEAIHTVTIALNKIQDVVNQQGSALNHLTSQLRHNFQAISNSIQAIYDRLDSIQADQQVDRLITGRLAALNAFVSQVLNKYTEVRGSRRLAQQKINECVKSQSNRYGFCGNGTHIFSIVNSAPDGLLFLHTVLLPTDYKNVKAWSGICVDGIYGYVLRQPNLVLYSDNGVFRVTSRVMFQPRLPVLSDFVQIYNCNVTFVNISRVELHTVIPDYVDVNKTLQEFAQNLPKYVKPNFDLTPFNLTYLNLSSELKQLEAKTASLFQTTVELQGLIDQINSTYVDLKLLNRFENLIKRMKQIEDKIEEIESKQKKIENEIARIKKIKLVPRGSLE
modifications: N-linked glycans (glycosylation shown at 34 of 39 NXS/T sequons; paucimannosidic or high-mannose)
stoichiometry N: 3
